# US20240336909
# B1: Cathepsin G (protein)
# chain: IIGGRESRPHSRPYMAYLQIQSPAGQSRCGGFLVREDFVLTAAHCWGSNINVTLGAHNIQRRENTQQHITARRAIRHPQYNQRTIQNDIMLLQLSRRVRRNRNVNPVALPRAQEGLRPGTLCTVAGWGRVSMRRGTDTLREVQLRVQRDRQCLRIFGSYDPRRQICVGDRRERKAAFKGDSGGPLLCNNVAHGIVSYGKSSGVPPEVFTRVSSFLPWIRTTMRS
# B2: MMP-2 (protein)
# chain: YNFFPRKPKWDKNQITYRIIGYTPDLDPETVDDAFARAFQVWSDVTPLRFSRIHDGEADIMINFGRWEHGDGYPFDGKDGLLAHAFAPGTGVGGDSHFDDDELWTLGEGQVVRVKYGNADGEYCKFPFLFNGKEYNSCTDTGRSDGFLWCSTTYNFEKDGKYGFCPHEALFTMGGNAEGQPCKFPFRFQGTSYDSCTTEGRTDGYRWCGTTEDYDRDKKYGFCPETAMSTVGGNSEGAPCVFPFTFLGNKYESCTSAGRSDGKMWCATTANYDDDRKWGFCPDQGYSLFLVAAHEFGHAMGLEHSQDPGALMAPIYTYTKNFRLSQDDIKGIQELYGASPDIDLGTGPTPTLGPVTPEICKQDIVFDGIAQIRGEIFFFKDRFIWRTVTPRDKPMGPLLVATFWPELPEKIDAVYEAPQEEKAVFFAGNEYWIYSASTLERGYPKPLTSLGLPPDVQRVDAAFNWSKNKKTYIFAGDKFWRYNEVKKKMDPGFPKLIADAWNAIPDNLDAVVDLQGGGHSYFFKGAYYLKLENQSLKSVKFGSIKSDWLGC
# B3: Neutrophil Elastase (protein)
# chain: IVGGRRARPHAWPFMVSLQLRGGHFCGATLIAPNFVMSAAHCVANVNVRAVRVVLGAHNLSRREPTRQVFAVQRIFENGYDPVNLLNDIVILQLNGSATINANVQVAQLPAQGRRLGNGVQCLAMGWGLLGRNRGIASVLQELNVTVVTSLCRRSNVCTLVRGRQAGVCFGDSGSPLVCNGLIHGIASFVRGGCASGLYPDAFAPVAQFVNWIDSIIQ
# Assays:
# [1] = target: AxCT mask27 EGFR EH104 L001 version 1
# [2] = target: AxCT mask27 EGFR EH104 L040 version 1
# [3] = target: AxCT mask27 EGFR EH104 L041 version 1
# [4] = target: AxCT mask27 EGFR EH104 L043 version 1
# [5] = target: AxCT mask27 EGFR EH104 L054 version 1
# [6] = target: AxCT mask27 EGFR EH104 L055 version 1
# [7] = target: AxCT mask27 EGFR EH104 L056 version 1
# [8] = target: AxCT mask27 EGFR EH104 L057 version 1
# [9] = target: AxCT mask27 EGFR EH104 L058 version 1
# [10] = target: AxCT mask27 EGFR EH104 L059 version 1
# [11] = target: AxCT mask27 EGFR EH104 L060 version 1
# [12] = target: AxCT mask27 EGFR EH104 L061 version 1
# [13] = target: AxCT mask27 EGFR EH104 L062 version 1
# [14] = target: AxCT mask27 EGFR EH104 L063 version 1
# [15] = target: AxCT mask27 EGFR EH104 L064 version 1
# [16] = target: AxCT mask27 EGFR EH104 L065 version 1
# [17] = target: AxCT mask27 EGFR EH104 L066 version 1
# [18] = target: AxCT mask27 EGFR EH104 L067 version 1
# [19] = target: AxCT mask27 EGFR EH104 L068 version 1
# [20] = target: AxCT mask27 EGFR EH104 L069 version 1
# [21] = target: AxCT mask27 EGFR EH104 L070 version 1
# [22] = target: AxCT mask27 EGFR EH104 L071 version 1
# [23] = target: AxCT mask27 EGFR EH104 L072 version 1
# [24] = target: AxCT mask27 EGFR EH104 L073 version 1
# [25] = target: AxCT mask27 EpCAM H90 L001 version 1
# [26] = target: AxCT mask27 EpCAM H90.2 L040 version 1
# [27] = target: AxCT mask27 EpCAM H90.2 L041 version 1
# [28] = target: AxCT mask27 EpCAM H90.2 L043 version 1
# [29] = target: AxCT mask27 EpCAM H90.2 L059 version 1
# [30] = target: AxCT mask27 EpCAM H90.2 L060 version 1
# [31] = target: AxCT mask27 EpCAM H90.2 L061 version 1
# [32] = target: AxCT mask27 EpCAM H90.2 L063 version 1
# [33] = target: AxCT mask27 EpCAM H90.2 L064 version 1
# [34] = target: AxCT mask27 EpCAM H90.2 L073 version 1
# [35] = target: AxCT mask27 EpCAM H90.2 L075 version 1
# [36] = target: AxCT mask27 EpCAM H90.2 L076 version 1
# [37] = target: AxCT mask27 EpCAM H90.2 NCLV
Protein,Percent cleavage [1],Percent cleavage [2],Percent cleavage [3],Percent cleavage [4],Percent cleavage [5],Percent cleavage [6],Percent cleavage [7],Percent cleavage [8],Percent cleavage [9],Percent cleavage [10],Percent cleavage [11],Percent cleavage [12],Percent cleavage [13],Percent cleavage [14],Percent cleavage [15],Percent cleavage [16],Percent cleavage [17],Percent cleavage [18],Percent cleavage [19],Percent cleavage [20],other results
B1,0%,0%,0%,0%,0%,0%,0%,0%,0%,8%,0%,0%,0%,0%,0%,0%,0%,0%,0%,12%,Percent cleavage [21]: 0%; Percent cleavage [22]: 0%; Percent cleavage [23]: 0%; Percent cleavage [24]: 0%; Percent cleavage [25]: 0%; Percent cleavage [26]: 0%; Percent cleavage [27]: 0%; Percent cleavage [28]: 0%; Percent cleavage [29]: 6%; Percent cleavage [30]: 0%; Percent cleavage [31]: 0%; Percent cleavage [32]: 0%; Percent cleavage [33]: 0%; Percent cleavage [34]: 0%; Percent cleavage [35]: 8%; Percent cleavage [36]: 0%; Percent cleavage [37]: 0%
B2,71%,60%,51%,27%,59%,35%,51%,47%,62%,39%,27%,43%,63%,31%,63%,71%,25%,34%,48%,29%,Percent cleavage [21]: 22%; Percent cleavage [22]: 39%; Percent cleavage [23]: 73%; Percent cleavage [25]: 104%; Percent cleavage [26]: 90%; Percent cleavage [28]: 39%; Percent cleavage [29]: 55%; Percent cleavage [30]: 40%; Percent cleavage [31]: 74%; Percent cleavage [32]: 36%; Percent cleavage [33]: 79%; Percent cleavage [34]: 17%; Percent cleavage [35]: 0%; Percent cleavage [36]: 35%; Percent cleavage [37]: 0%
B3,34%,13%,0%,7%,23%,9%,14%,28%,9%,15%,10%,19%,8%,9%,30%,10%,9%,32%,19%,22%,Percent cleavage [21]: 11%; Percent cleavage [22]: 26%; Percent cleavage [23]: 10%; Percent cleavage [24]: 9%; Percent cleavage [25]: 44%; Percent cleavage [26]: 9%; Percent cleavage [27]: 0%; Percent cleavage [28]: 0%; Percent cleavage [29]: 14%; Percent cleavage [30]: 7%; Percent cleavage [31]: 14%; Percent cleavage [32]: 0%; Percent cleavage [33]: 32%; Percent cleavage [34]: 10%; Percent cleavage [35]: 0%; Percent cleavage [36]: 6%; Percent cleavage [37]: 0%
